Reference: PMC9519379 (Cell Reports Medicine, 2022)

How the values were obtained:
[1] = molecular target: SARS-CoV-2 Spike protein Trimer (Wild type) (SARS-CoV-2) (UniProt P0DTC2); assay: single-molecule force spectroscopy
[2] = molecular target: SARS-CoV-2 Spike Trimer (B.1.1.529/Omicron) (SARS-CoV-2) (UniProt P0DTC2); assay: single-molecule force spectroscopy

Substance: H84T-banana lectin (H84T-BanLec) (from UniProt Q8L5H4 1-141) (designed binder)
- IC50 [1]: 5.2 nM
- koff [1]: 0.046 s⁻¹
- kon [1]: 99800 M⁻¹ s⁻¹
- IC50 [2]: 2.6 nM
